The text below walks through data of article doi:10.1101/2024.12.13.628402 (bioRxiv, 2024).

This assay has as its target T1, His6-YidC (E. coli, UniProt P25714 1-548).
T1 sequence (looked up): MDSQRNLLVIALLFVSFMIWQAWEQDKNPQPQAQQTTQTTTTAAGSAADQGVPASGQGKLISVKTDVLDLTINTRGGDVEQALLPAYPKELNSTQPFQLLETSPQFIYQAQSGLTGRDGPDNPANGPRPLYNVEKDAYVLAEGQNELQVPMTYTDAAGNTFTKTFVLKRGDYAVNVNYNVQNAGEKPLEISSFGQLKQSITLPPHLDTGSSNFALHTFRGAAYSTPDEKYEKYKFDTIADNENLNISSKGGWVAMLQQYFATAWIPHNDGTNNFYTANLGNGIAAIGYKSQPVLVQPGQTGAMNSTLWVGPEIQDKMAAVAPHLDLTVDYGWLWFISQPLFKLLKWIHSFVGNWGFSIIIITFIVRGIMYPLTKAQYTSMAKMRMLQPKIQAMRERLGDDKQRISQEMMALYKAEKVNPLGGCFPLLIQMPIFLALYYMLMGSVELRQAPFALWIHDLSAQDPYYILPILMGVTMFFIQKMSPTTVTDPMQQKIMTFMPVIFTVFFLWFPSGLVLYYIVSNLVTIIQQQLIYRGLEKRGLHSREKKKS
Put plainly: native gel or EMSA. A general note: Mobility shift assays separate free from complexed probe on a gel.

B1: YibN-His6 (natural protein, E. coli, UniProt P0AG27 1-143, looked up)
chain: MQEIMQFVGRHPILSIAWIALLVAVLVTTFKSLTSKVKVITRGEATRLINKEDAVVVDLRQRDDFRKGHIAGSINLLPSEIKANNVGELEKHKDKPVIVVDGSGMQCQEPANALTKAGFAQVFVLKEGVAGWAGENLPLVRGK
In the case of B1, the binding result is reported as “binds”.
